From the nanobody polyreactivity screen of Harvey et al. (2022)

assay: yeast display, Sf9 membrane polyspecificity reagent, FACS + sequencing; frameworks hold sequencing errors
Summary of the method: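 In a synthetic yeast display library (Saccharomyces cerevisiae BJ5465), nanobody expression was induced with galactose for 36–48 hours. FACS gates were set low and high (top ~1%) using anti-HA fluorescence for expression and streptavidin fluorescence for binding of the Sf9 membrane reagent. Each polyreactivity label is drawn from the gate of origin.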

Sequence	polyreactivity (PSR sort gate)
QVQLLESGGGLVQAGGSLRLSCAASGNIFMDYAMGWYRHAPGKERELVAAITSRVDDTYYADSVKGRFTISRDNAKNTVYLQMNSLKPEDTAVYYCAADYSVTLRIGGYYWFYAFDYWGQGTQVTVSS	low polyreactivity
QVQLLESGGGLVQAGGSLRLSCAASGRIFGRYAMGWYRHAPGKERELVAAISQSGARTYYADSVKGRFTFSRDNAKNTVYLQMNSLKPEDTAVYYCAARYKALYDYWGQGTQVTVSS	high polyreactivity
QVQLLESGGGLVQAGGSLRLSCAASGRIFGSNAMGWYRQAPGKERELVAAITRGGSTNYADSVKGRFTISRDNAKNTVYLQMNSLKPEDTAVYYCAVRWYRKYNYWGQGTQVTVSS	high polyreactivity
QVQLLESGGGLVQAGGSLRLSCAASGRIFKFNAMGWYRQAPGKERDLVAAISKRGGSTYYADSVKGRFTISRDNAKNTVYLQMISLKPEDTAVYYCAADRSPYGGDYDYWGQGTQVTVSS	high polyreactivity
QVQLLESGGGLVQAGGSLRLSCAASGRTFQRNAMGWYRQAPGKETELVATITTNGGSTYYADSVKGRFTISRDNAKNTVYLQMNSLKPEDTAVYYCAAPFNPRVRTLRSVRMDYWGQGTQVTVSS	low polyreactivity
QVQLLESGGGLVQAGGSLRLSCAASGRTFTTYTMGWYRQAPGKERELVAAIRSGGRTYYADSVKGRFTISRDNAKNTVYLQMNSLKPEDTAVYYCNARDCVRNVYAYAGRQYDYWGQGTQVTVSS	low polyreactivity
QVQLLESGGGLVQAGGSLRLSCAASGRTLDRNAMGWYRQAPGKERELVAAISRRTGSTYYADSVKGRFTISRDNAKNTVYLQMNSLKPEDTAVYYCNKVTYGDFDYWGQGTQVTVSS	high polyreactivity
QVQLLESGGGLVQAGGSLRLSCAASGSIFFYYAMGWDRQAPGKERELVATITSGGSTSYADSVKGRFTISRDNAKNTVYLQMNSLKPEDTAVYYCAARKVTKSTYNYWGQGTQVTVSS	low polyreactivity
QVQLLESGGGLVQAGGSLRLSCAASGSIFRYNDMGWYRKAPGKETELVATITSGTNTYYADSVKGRFTISRDNAQNTVYLQMNRLKPEDTAVYYCAKSYNAWDGRTFEEMNYWGQGTQVTVSS	low polyreactivity
QVQLLESGGGLVQAGGSLRLSCAASGSIFVFYAMGWYRQAPGKERELVAAISSSGGSTYYADTVKGRITISRDNAKNTVYLQMNSLKPEDTAVYYCAVRRSTGSRSPPMYYWGQGTQVTVSS	high polyreactivity
QVQLLESGGGLVQAGGSLRLSCAASGSILYPYAMGWYRQAPGTERELVAVITKSGGGTYYADSVKGRFTISRDNAKNTVYLQMNSLKPEDTAVYYCNRVWLRGAPHMEYWGQGTQVTVSS	high polyreactivity
QVQLLESGGGLVQAGGSLRLSCAASGSIYVYNAMAWYRQAPGKERELVAAISRGGRTYADSVKGRFTISRDNAKNTVYLQMNSLKPEDTAVYYCAAQGYYRSWYSRQGHYDFWGQGTQVTVSS	high polyreactivity
QVQLLESGGGLVQAGGSLRLSCAASGSTCGRNAMGWYRQAPGKERELVAAITSTGSTYYADSVKGRFTISRDNAKNTFYLQMNSLNPEDTAVYYCAAEARPYLFPAYKYPYYSWGQGTQVTVSS	low polyreactivity
QVQLLESGGGLVQAGGSLRLSCAASGSTFDRYAMGWNRQAPGKEREFVAAITWGGGSTYYADSVKGRFTISRDNAKNTVYLKFNSLKPEDTAVYYCATRYGASFGYWVQGTQVTVSS	low polyreactivity
QVQLLESGGGLVQAGGSLRLSCAASGSTFGFYAMGCYRPAPGKERELVAAISKSGDITYYADSVKGRFTNSLDNAKNTVYLQMNSLKPEDTAVYYCADRYGYLDNSIYVYWGQGTQVTVSS	high polyreactivity
QVQLLESGGGLVQAGGSLRLSCAASGSTFINNAMGWYRQAPGKERELVAAISGNADRTYYADSVKGRFTISRDYAKNTVYLQMISLKPEDTAVYYCNALSLLSDGAASVDQVTFDYWGQGTQVTVSS	low polyreactivity
